Assay results from patent publication US20250136677A1 (ZOETIS SERVICES, published 2025).
Substitutions are numbered along the chain they refer to. Where two headings read alike, the source gives them in different places.

Legend:
[1] = biological target: T1, wildtype feline IL-31 protein (Feline_IL31_wildtype) (feline); assay: cell-based or functional assay
T1 chain: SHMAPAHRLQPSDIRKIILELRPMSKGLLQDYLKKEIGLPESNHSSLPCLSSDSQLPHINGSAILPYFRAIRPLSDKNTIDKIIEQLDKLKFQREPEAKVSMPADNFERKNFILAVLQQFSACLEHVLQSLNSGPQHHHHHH

[2] = biological target: T1, wildtype feline IL-31 protein …; assay: Biacore, feline IL-31 chip, mAb 100 nM, share of points within parent mean +/-3 SD; design: key: % of mutant data points within parent mAb mean ±3 SD
Text: The region of an antibody responsible for antigen recognition represents the paratope. A paratope is created by a combination of amino acids in the complementarity determining regions (CDRs) of both the heavy and light chain variable regions. The binding between antibody and antigen is often mediated by side chains of CDR residues with side chains or carbohydrate moieties of the antigen. To help define critical side chains involved in antibody recognition alanine scanning mutagenesis was performed on each CDR residue in both the heavy and light chain. These mutants were then individually tested for the ability to bind feline IL-31 using the biacore and evaluated for inhibition of IL-31-mediated signaling in the FCWF-4 cell based assay.
(§1) The mean response unit of four replicates of the parent mAb+/−3 standard deviations was used to generate parameters to define a threshold of response units comprising both the on- and off-rates antibody binding (FIG. 22). The percentage of data points for each mutant fell within this threshold was then used to define a “% similarity score” (FIG. 23).

[3] = biological target: T1, wildtype feline IL-31 protein …; assay: cell-based or functional assay
[4] = biological target: T1, wildtype feline IL-31 protein …; assay: Biacore, feline IL-31 chip, mAb 100 nM, share of points within parent mean +/-3 SD; design: key: % of mutant data points within parent mAb mean ±3 SD
Text: as §1

B1: A03 (antibody, V domains shown)
VH: QVLLVQSGAEVRTPGASVKIFCKASGYSFTSYTIHWLRQAPAQGLEWMGNINPTSGYTENNQRFKDRLTLTADTSTNTAYMELSSLRSADTAMYYCARWGFKYDGEWSFDVWGAGTTVTVSS
VL: EIQMTQSPSSLSASPGDRVTITCRASQAISIWLSWYQQKPGNIPKVLINKASNLHIGVPSRFSGSGSGTDFTLTISSLEPEDAATYYCLQSQTYPLTFGGGTKLEIK
notes: sample ID reads A03 although it stands between A07 and A09
- % Inhibition Relative to Parent (pSTAT, FCWF-4 cells) [1]: 52.9%
- Binding Similarity score [2]: 58

B2: A40 (antibody, V domains shown)
VH: B1 VH with P53A
VL: B1 VL with A28G
- % Inhibition Relative to Parent (pSTAT, FCWF-4 cells) [3]: 5.7%
- Binding Similarity score [4]: 2.7

B3: A58 (antibody, V domains shown)
VH: B1 VH with G105A
VL: B1 VL with A28G
- % Inhibition Relative to Parent (pSTAT, FCWF-4 cells) [3]: 15.3%
- Binding Similarity score [4]: 16.7

B4: A55 (antibody, V domains shown)
VH: B1 VH with K102A
VL: B1 VL with A28G
- % Inhibition Relative to Parent (pSTAT, FCWF-4 cells) [3]: 66.8%
- Binding Similarity score [4]: 12.6

B5: A10 (antibody, V domains shown)
VH: B1 VH
VL: B1 VL with A28G, S30A
- % Inhibition Relative to Parent (pSTAT, FCWF-4 cells) [1]: 26%
- Binding Similarity score [2]: 63.4

B6: A35 (antibody, V domains shown)
VH: B1 VH with I34A
VL: B1 VL with A28G
- % Inhibition Relative to Parent (pSTAT, FCWF-4 cells) [3]: 92.5%
- Binding Similarity score [4]: 97.5

B7: A47 (antibody, V domains shown)
VH: B1 VH with E59A
VL: B1 VL with A28G
- % Inhibition Relative to Parent (pSTAT, FCWF-4 cells) [3]: 18%
- Binding Similarity score [4]: 100

B8: A36 (antibody, V domains shown)
VH: B1 VH with H35A
VL: B1 VL with A28G
- % Inhibition Relative to Parent (pSTAT, FCWF-4 cells) [3]: 25.2%
- Binding Similarity score [4]: 10.4

B9: A63 (antibody, V domains shown)
VH: B1 VH with F109A
VL: B1 VL with A28G
- % Inhibition Relative to Parent (pSTAT, FCWF-4 cells) [3]: -6%
- Binding Similarity score [4]: 2.9

B10: A07 (antibody, V domains shown)
VH: B1 VH
VL: B1 VL with Q27A, A28G
- % Inhibition Relative to Parent (pSTAT, FCWF-4 cells) [1]: 93.6%
- Binding Similarity score [2]: 74.4

B11: A38 (antibody, V domains shown)
VH: B1 VH with I51A
VL: B1 VL with A28G
- % Inhibition Relative to Parent (pSTAT, FCWF-4 cells) [3]: 42.2%
- Binding Similarity score [4]: 55.1

B12: A65 (antibody, V domains shown)
VH: B1 VH with V111A
VL: B1 VL with A28G
- % Inhibition Relative to Parent (pSTAT, FCWF-4 cells) [3]: 26.8%
- Binding Similarity score [4]: 50.5

B13: A09 (antibody, V domains shown)
VH: B1 VH
VL: B1 VL with A28G, I29A
- % Inhibition Relative to Parent (pSTAT, FCWF-4 cells) [1]: 28%
- Binding Similarity score [2]: 100

B14: A52 (antibody, V domains shown)
VH: B1 VH with W99A
VL: B1 VL with A28G
- % Inhibition Relative to Parent (pSTAT, FCWF-4 cells) [3]: -2.1%
- Binding Similarity score [4]: 2.4

B15: A50 (antibody, V domains shown)
VH: B1 VH with Q62A
VL: B1 VL with A28G
- % Inhibition Relative to Parent (pSTAT, FCWF-4 cells) [3]: 55.5%
- Binding Similarity score [4]: 58.6

B16: A05 (antibody, V domains shown)
VH: B1 VH
VL: B1 VL with R24A, A28G
- % Inhibition Relative to Parent (pSTAT, FCWF-4 cells) [1]: 0%
- Binding Similarity score [2]: 25.6

B17: A54 (antibody, V domains shown)
VH: B1 VH with F101A
VL: B1 VL with A28G
- % Inhibition Relative to Parent (pSTAT, FCWF-4 cells) [3]: -1%
- Binding Similarity score [4]: 17.6

B18: A06 (antibody, V domains shown)
VH: B1 VH
VL: B1 VL with S26A, A28G
- % Inhibition Relative to Parent (pSTAT, FCWF-4 cells) [1]: 40%
- Binding Similarity score [2]: 89.7

B19: A42 (antibody, V domains shown)
VH: B1 VH with T54A
VL: B1 VL with A28G
- % Inhibition Relative to Parent (pSTAT, FCWF-4 cells) [3]: 83.6%
- Binding Similarity score [4]: 44.9

B20: A60 (antibody, V domains shown)
VH: B1 VH with W107A
VL: B1 VL with A28G
- % Inhibition Relative to Parent (pSTAT, FCWF-4 cells) [3]: -8.7%
- Binding Similarity score [4]: 2.4

B21: A37 (antibody, V domains shown)
VH: B1 VH with N50A
VL: B1 VL with A28G
- % Inhibition Relative to Parent (pSTAT, FCWF-4 cells) [3]: 52.1%
- Binding Similarity score [4]: 46.1

B22: A44 (antibody, V domains shown)
VH: B1 VH with G56A
VL: B1 VL with A28G
- % Inhibition Relative to Parent (pSTAT, FCWF-4 cells) [3]: 36.9%
- Binding Similarity score [4]: 55.8

B23: A34 (antibody, V domains shown)
VH: B1 VH with T33A
VL: B1 VL with A28G
- % Inhibition Relative to Parent (pSTAT, FCWF-4 cells) [3]: 0%
- Binding Similarity score [4]: 3.37

B24: A45 (antibody, V domains shown)
VH: B1 VH with Y57A
VL: B1 VL with A28G
- % Inhibition Relative to Parent (pSTAT, FCWF-4 cells) [3]: 22.8%
- Binding Similarity score [4]: 31.9

B25: A32 (antibody, V domains shown)
VH: B1 VH with S31A
VL: B1 VL with A28G
- % Inhibition Relative to Parent (pSTAT, FCWF-4 cells) [3]: 40.3%
- Binding Similarity score [4]: 39.2

B26: A62 (antibody, V domains shown)
VH: B1 VH with S108A
VL: B1 VL with A28G
- % Inhibition Relative to Parent (pSTAT, FCWF-4 cells) [3]: 22.6%
- Binding Similarity score [4]: 46.1

B27: A43 (antibody, V domains shown)
VH: B1 VH with S55A
VL: B1 VL with A28G
- % Inhibition Relative to Parent (pSTAT, FCWF-4 cells) [3]: 47.4%
- Binding Similarity score [4]: 100

B28: A12 (antibody, V domains shown)
VH: B1 VH
VL: B1 VL with A28G, I31A
- % Inhibition Relative to Parent (pSTAT, FCWF-4 cells) [1]: 19.3%
- Binding Similarity score [2]: 25.7

B29: A57 (antibody, V domains shown)
VH: B1 VH with D104A
VL: B1 VL with A28G
- % Inhibition Relative to Parent (pSTAT, FCWF-4 cells) [3]: 85.4%
- Binding Similarity score [4]: 38.9

B30: A48 (antibody, V domains shown)
VH: B1 VH with N60A
VL: B1 VL with A28G
- % Inhibition Relative to Parent (pSTAT, FCWF-4 cells) [3]: 47.3%
- Binding Similarity score [4]: 70.2

B31: A64 (antibody, V domains shown)
VH: B1 VH with D110A
VL: B1 VL with A28G
- % Inhibition Relative to Parent (pSTAT, FCWF-4 cells) [3]: 6.9%
- Binding Similarity score [4]: 2.7

B32: A39 (antibody, V domains shown)
VH: B1 VH with N52A
VL: B1 VL with A28G
- % Inhibition Relative to Parent (pSTAT, FCWF-4 cells) [3]: 25.1%
- Binding Similarity score [4]: 100

B33: A49 (antibody, V domains shown)
VH: B1 VH with N61A
VL: B1 VL with A28G
- % Inhibition Relative to Parent (pSTAT, FCWF-4 cells) [3]: 46.6%
- Binding Similarity score [4]: 37
